Data on 69 sequences can be found in the domain aggregation screens of Martell et al. (2025).

The data set can be described thus: soluble fraction after stress (log2 fold change); higher = more stays soluble; pooled small domains, quantitative proteomics. Conditions: stress: pH 4. The method in brief:
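Custom libraries of small protein domains were pooled and exposed to pH 4. High-throughput quantitative proteomics then measured the log2 fold change in the amount of each domain still soluble, with higher values meaning more stayed soluble. This soluble-fraction fold change stands for aggregation propensity.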
With “HMGPSVGMTVGEMERDLIFRTLETVGDNRTKAADMLGISIRTLRNKLNEYREAGFEWPRKAG”, the “soluble fraction (log2)” value is -0.0611. Turning to “HMGQAVTMLKAGRLLANAKGTGAPVRSLEPGMLLYPTGVKEGTMWEVEDEMGNKGWVNSTLMETA”, the “soluble fraction (log2)” value is -0.284. To “HMGQAVTVPELKGLSFDEAIEKLDDAGLKYEVVDSNYVEDMKPGTVFETLPEAGSRVKPRRIVFLTINAF” belongs -0.689. To “HMGQDTTIVVRRGESLLGIAARLLPATDFYTTGELAEGIRTASGMENDRLIPGQTLRVPLNSG” belongs 0.0588; to “HMGQGEISVPRLEGLSLRETSELLGLFGLRLEAAGSGIALSQNPPAGARVKAGDVIQVDFGEPGN”, 0.0931; to “HMGQHSAELKLHPQDLGQVTISMKVEDNQAQLQMVSGHGHVRAALEAALPQLRSQLADSGIQLTQSSIS”, -0.223. To “HMGQISDEETLKTVASRIIDANPDEARKYRSGKTGLLGFFVGQVMKATQGEANPKLASRIVKELLE” belongs ≥ 0.43.

In the case of “HMGQLIVTIPNFERRPAEQAIQKLEELGLVPEEKQIYHDDIPAGSVIYTDPSKDSQVNAGTKVYVYVSLG”, the “soluble fraction (log2)” value is -0.0832.

In the case of “HMGQMGHAVVAKTDLAVGTPLTRDLVAVREVPVEWLHSSAITPEQFERAAGAVLAQPARGGEPLVWSQLEE”, the “soluble fraction (log2)” value is -0.201. To “HMGQPRPLTAEDFDFLSDDEIAEMRKALSNGEMLRLRELIAQIGEKRPFLAERLLVLAKQYNYEDLSRLLE” belongs -0.831. Turning to “HMGQQPPVTEIYKNHDGNKDGLLEAGEVTGSRYARQFPRWDVNGDQKVSPQEVIAFRKRFGIAADGTLL”, the “soluble fraction (log2)” value was 0.0862. To “HMGQQTVEPLSRRELEVLSLLAKGLSNQQIADRLVISVRTVKKHVENIHGKLGVQSRTQAVARARELGLV” belongs -0.688; to “HMGQTYTITINPTPADAKVIIDGVATNSVEAIDGRTLIWSVSKPGYLTKSGNYTVTGKNETLNIVLKEDPD”, -0.283. For “HMGQVLEGVFRRKANGKNAFIPDGGGEPILVAERNSAHAMDGDRVKATLLARRKHHVREAQVTEILKRSSK” the value was 0.0841; for “HMGQVSDENQLNKVIDEVIKNYPIQVEQFKAGKEPILQFLKGMVMKATEGSADPAVAEKLLRKKL”, 0.0192; for “HMGQYLDAATVAAVYHAYHARNWTQATLAKELKVARPTLSNVLNGREAPSVELAARIRAFLGSPEP”, ≥ 0.43. For the sequence “HMGRAAEETETFRTQGELDARIKELQGQMRDAAANLEFERAAGLRDTLKRLRTRGLGLSASP”, the “soluble fraction (log2)” value is -0.0313. For “HMGRENGTVKWFNTSKGFGFITRDDGGDVFVHFRSIQGEGHRALQEGQRVSYVVANRDKGLQAEDVTILN” the value was -0.107. To “HMGRKRLADYGLNDTEQKIVRKIADGLSNREIAQALYLSEGTVKNYITDILGKLELRDRTQIAIFYLREIG” belongs -0.244; to “HMGRLTTKIVLYDRIENIVPERRKELVADIEKRIGVKVEVLEIGHVDFVRDAAWLKVSYYLAPGE”, -1.35. For “HMGRNSTPKEPLKKFEVSPITEKEVRILDGRFGPYITDGATNVTVPKTITIEEITFERALDMLAEKAAKGP” the value was -0.153. As to “HMGRPQISDELRNAIIEVAKDNRDWGYIRIQGQLKYLGYRVSTATIGKVLKKAGLEPQPDRRRK”, the “soluble fraction (log2)” value is -0.667.

Turning to “HMGRPWRIGDVVNVSRPTGDGGGFTKGLITRIYPTTVQVTWNPDLQHARPWTTMEKKQYLIFVYHDDE”, the “soluble fraction (log2)” value was ≥ 0.43. For the sequence “HMGRQTITLPDFSGQDLEQVKARLTEWGLVPEEKSVFSDSVPLGSVVRTVPAEGDEVSVGDTVTVYKSLGR”, the “soluble fraction (log2)” value is 0.252. For “HMGRRDLSWQPAAGGVSIDGLKAGEAWTLFGLNGRILKQGYAPEGQMSLAVNAGLFVLRGAESGVIRIAVA”, the “soluble fraction (log2)” value was -0.255. With “HMGRSYTIKSGDTLWAIATRYYGNGAQYSKIYNANKGTIESVAKSRGFRSSQNGHWIFPGTSITI”, the “soluble fraction (log2)” value turned out to be 0.056. For “HMGRTITVGIAEDADIKDIAKMLEEKGLISDYRLFVVQELLSAQHDKIKPGIYDLSTDMKAEEMLEILAG” the value was -1.33.

For the sequence “HMGRTKEEIFNILKERIVTLQYEPGKILNEIELSEEFEVSRTPIRTVFQQLEAVKLVSIVPRYGVQVA”, the “soluble fraction (log2)” value is -1.11. For “HMGRYATVPDVVGSTPEVARELIRSEGLRYVLSEETVYSDSDTGTVGRTDPESGTRMSADDEVVVYLS” the value was -1.27; for “HMGRYVIQIASFSSKNNAIEAADKLGGFVVQSGRFYRVRTGPFATRGEADAALASARRVGYRDAFIDTS”, -0.233; for “HMGSAIAHAIASLPDRYRELLLLKYDTGYSEKEIAQLLGMTEANVKKTIQRAKAKLQTLLDEMEA”, -0.354. “HMGSAKAQLYDLMNAHQVTRNQIQDIVAEKGYFPAGTPIENYPDDFVKGVLVGAWDQVHKAILDKEI”: the “soluble fraction (log2)” value was -0.437. For the sequence “HMGSEISLNAFNIPKGSVSVTAGGTKLVENQDYTVDYTLGRIKILNEGILNSGVPIQVNFENNTLFN”, the “soluble fraction (log2)” value is -0.087. On to “HMGSEYILTIIPTPADATVFINGVKKNSASGVNGQILSWEVTKEGYIPQSGTFTINGKNETIEVVLQPQT”, for which the “soluble fraction (log2)” value is -0.577. As to “HMGSFFSKATAPVRTTGGDGLYKHGSIWFNTSTGRLFVYIPDDRYTGLLDTHNGDIGYWVDVS”, the “soluble fraction (log2)” value is -1.22. On to “HMGSFGAMLKRNRKLAGLTQEQLAEKLDVSTVAVQNWESGKNQIRSEKLTKLSYLFNIPLETLIHEMLIS”, for which the “soluble fraction (log2)” value is 0.0247. “HMGSFISADEALAKALSHAGLDQSAIRELEMDSELDDDVPHYSIDFKSGNLEYEYEISATDGSVLKFEQD”: the “soluble fraction (log2)” value is -0.0935.

Turning to “HMGSKEQELVILNNILERQLQAINLQKSAAGPMVNLRNVHNTLTKLVEAAGLKNVETYFTDPVIGAAQ”, the “soluble fraction (log2)” value is -0.543. For the sequence “HMGSNTLEDAYKVLGITPDATDDEVRKAYKKMVIQHHPDKVANLGEDVKKAATIKLQEINNAKEIIFKARN”, the “soluble fraction (log2)” value was found to be 0.192. Turning to “HMGSQSYVAIVNERFKESDIVELGGSVGSRTGDIITLHFRNSSPNELKNITGIVYLQVANKVTPKL”, the “soluble fraction (log2)” value is -0.875. For “HMGSTDTLEDALEAAEKISYPVIIKATAGGGGRGMKVASSLEELKKVYHTTKLEAKNAFGNDQVYIEKYL” the value was -0.0649.

With “HMGSTYGISRVDNETSRTHGWLVTIQRRGVIYRKHFSDGVFGGKQRSFAAAKEYRDEVIAAHP”, the “soluble fraction (log2)” value was -0.00453.

Regarding “HMGSVVATLRKLIIDGHYPAGTRLAEIPVANALGVSRTPVRLAFRTLQQEGLLQTVGKRGIVVRAF”, the “soluble fraction (log2)” value came out at 0.137. For “HMGSWDDFFNAIRLDNPNTLQALLQRGFDPNTVDQQGTPALMRALQEQSYRAAEVLADHPQI”, the “soluble fraction (log2)” value was -0.584. On to “HMGTAGLSPWHKIAVLMIALGPEGASELMRHFGEDEVEQVVQAIADLKNVPSELQDAVLLEMEGALQEG”, for which the “soluble fraction (log2)” value was -0.796. For “HMGTDVFIMTGGTRKRGATWSYYFDLGKIDGKRQKKEKGGFKTKKEAETALAKAINEYNNAGA” the value was 0.175; for “HMGTFIATVEANSLDIYKSMSSNETIGKANKGEVFQILEDMGSGYARVSYNDVEGYLSIRDGDATIEE”, -1.54. To “HMGTGADQVSWKTGDKVTHKKWGEGTVVKVSGSGNDKELDIAFPQQGVKRLLASFAPIKKVT” belongs -0.0102. For the sequence “HMGTGQTNEKLAVLTNIQKTQEQILLTLGAKNPLVNLKQYRETLAKILSLSGYKNSNEFFLDPM”, the “soluble fraction (log2)” value was -0.25. To “HMGTGTYQVWSANGLGVRMRSGPGTGYRILAVYSVGTSVTVLQKGAYWSYIRVGSRTGYMMNQFLVSG” belongs -0.268; to “HMGTGVEQGKQYRTLKRDFDGASGIKVNGDFYRLRTSDTGMTELPAGTEVTFERFDGTTAVVHT”, 0.196; to “HMGTHPGIDSGIISDILALKKELPTRSAAKIITMLTLAGKMEENSIHVKTVNRILYQYGYTRDTLS”, -0.222. For “HMGTITKRTNPSGAVVWRAQIRINKADMPTYSESKTFSKKSLATEWLKRREAEIEANPDLIL” the value was ≥ 0.43; for “HMGTKDVNAAPSAVGRTYDEAIEILNGYKAGYLEEYSDTVPKGTVISQSVQDGQVVIVVSLGPKPS”, -0.18. For “HMGTKVGAPLPGTITEVKVKVGDTVKAGDAVIILEAMKMQNNIEAEVSGTVSSVLVKEGDTVMEGDALITI”, the “soluble fraction (log2)” value is -1.18. For “HMGTLNLSQAYREWGMAEIEANRDYYGPVRFDDIAFQMSPAGQQLQARFVASYADRLHDAIEGEL” the value was -1.68.

Turning to “HMGTLRPKGTVVFANLPIAADAKEGDMYNISDQFTTTASFKEGAGNVIPAGSNVYRTDDGFWDVL”, the “soluble fraction (log2)” value was determined as 0.193. Regarding “HMGTPEQSAQFEQVLEELKNVPGPVMKAMQRAQDIYGYLPIEIQSRIGQAFGVSLEEVYGIATFYSQFNL”, the “soluble fraction (log2)” value was -2.6. With “HMGTQKVQVVNGPINVRSGPGPTFEKIGMVEDQAVYQVVSKKDDWFQISLPGNKTAWVAGWLVKEIK”, the “soluble fraction (log2)” value was -0.0241.

Turning to “HMGTRHPLPYAFAKAHTVLLEDDGDRLLLHAAENSGPSALGEILRLYDVDALERETASTLANRIAVAYAG”, the “soluble fraction (log2)” value worked out at 0.163. “HMGTSGLTIPRFVSLASGTVHMRAGPGVRYPITWIYKRLGTPLMVMAEHEFWRKVRDAEGTEGWMHRSLLS”: the “soluble fraction (log2)” value is -0.00785. To “HMGTSIMIIIVKPETKKERVNDLIHWIESQNLRTHLSTGDYSTIIGVIGDTSKLDSELIRGLDIVENVKRV” belongs -1.24; to “HMGTSMDPPVIIVSDGKLIQKGLEVSGLKKQWLYDLIDRKHMKISDIFLLTADKTGKYNLIKRS”, -0.134; to “HMGTSQSAVKAILAQLISDENKQKPYSDEALSRLLQQQGIDIARRTVAKYREALNIPPAHQRK”, 0.365. Take “HMGTSRVQSILFDQSQWTINRAVHWLNTHHFISTKIDKTDKYLRFRQFDPNPDSHHATKRTSQGITFILE”: the “soluble fraction (log2)” value is ≥ 0.43.

Turning to “HMGTTIAMSKLKQVLRWKEEGYSNRKIAQLVGLNKETVNNYISRANADSLSQKELLQLDDFVLDIRLRG”, the “soluble fraction (log2)” value was -0.138. To “HMGTTTGKVNATGVNFRTGPSTSYSSMGKLGIDTAVTILGKSGDWYQVKVNSTGKTGYVFAKYITITSVV” belongs -0.434. For the sequence “HMGTVIGMGRITAGGVNFRETEGGGVIEKLERDTLVEVLTVPSVIDTTHWYQVRYNNRTGYVQAPFVQLLG”, the “soluble fraction (log2)” value is 0.176. For “HMGTVKWFNATKGFGFIVPSDGGKDVFVHITAVQKAGLQGLNEGQKVSYEVAMERGKAAATNLR” the value was -0.259.
